Measured values published in publication PMC4390438.

Biological target: T1, dopamine D2 receptor (mouse (endogenous in C57BL/6 brain slices)), P61168
T1 chain: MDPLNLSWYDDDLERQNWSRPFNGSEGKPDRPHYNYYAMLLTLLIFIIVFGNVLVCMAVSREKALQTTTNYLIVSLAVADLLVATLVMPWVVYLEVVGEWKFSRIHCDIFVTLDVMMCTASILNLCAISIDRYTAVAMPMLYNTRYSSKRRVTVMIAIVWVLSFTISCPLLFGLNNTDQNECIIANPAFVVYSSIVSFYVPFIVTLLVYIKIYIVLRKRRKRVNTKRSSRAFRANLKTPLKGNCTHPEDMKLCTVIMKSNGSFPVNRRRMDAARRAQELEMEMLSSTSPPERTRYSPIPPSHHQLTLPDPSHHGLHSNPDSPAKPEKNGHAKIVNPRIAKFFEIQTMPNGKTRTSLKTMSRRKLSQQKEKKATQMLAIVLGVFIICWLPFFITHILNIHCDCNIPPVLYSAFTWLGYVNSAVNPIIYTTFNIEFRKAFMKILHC
Experiment: proximity ligation
Settings: remark: other sources report otherwise

PLA dots per µm^2: 0.283 dots/µm^2
B1: dopamine D1 receptor, Q61616 1-446 (receptor)
chain: MAPNTSTMDETGLPVERDFSFRILTACFLSLLILSTLLGNTLVCAAVIRFRHLRSKVTNFFVISLAVSDLLVAVLVMPWKAVAEIAGFWPFGSFCNIWVAFDIMCSTASILNLCVISVDRYWAISSPFQYERKMTPKAAFILISVAWTLSVLISFIPVQLSWHKAKPTWPLDGNFTSLEDAEDDNCDTRLSRTYAISSSLISFYIPVAIMIVTYTSIYRIAQKQIRRISALERAAVHAKNCQTTTGNGNPVECSQSESSFKMSFKRETKVLKTLSVIMGVFVCCWLPFFISNCMVPFCGSEETQPFCIDSITFDVFVWFGWANSSLNPIIYAFNADFQKAFSTLLGCYRLCPTTNNAIETVSINNNGAVMFSSHHEPRGSISKDCNLVYLIPHAVGSSEDLKREEAGGIPKPLEKLSPALSVILDYDTDVSLEKIQPVTHSGQHST
